Like-named read-outs stand apart in the source and are kept apart here.
Tests used:
[1] = target: human MHC class II β chain (human)
[2] = target: human MHC class II β chain (human); remark: listed apart in the source

Substance	Plaques/10^6 PBMC (anti-SRBC antibody formation, hemolytic plaque assay) (Plaques/10^6 PBMC) [1]	Plaques/10^6 PBMC (anti-SRBC antibody formation, hemolytic plaque assay) (Plaques/10^6 PBMC) [2]
BZLF2/Fc fusion protein	0	–
Tie/Fc (Fc fusion)	–	606
IL-4 receptor/Fc fusion protein	788	–

— US5726286
